Data as given in patent publication US20220235135A1 (COUNCIL OF THE QUEENSLAND INSTITUTE OF MEDICAL RESEARCH, published 2022).
Positions count from the first letter of the chain named.

Biological target: T1, Human GAL9 protein (Galectin-9) (human, UniProt O00182 1-355)
T1 construct: Bought His-tagged protein; also called hGAL9; Human Gal9 His-tag (Acro Biosystems Cat #LG9-H5244)
Experiment: Octet BLI, IgG1 on biosensor, GAL9 analyte dilution series, global fit (monovalent affinity)
Description: To measure qualitative binding affinity in the GAL9 binder discovery campaigns, IgG1 reformatted binders were immobilized to a biosensor on an Octet (Pall ForteBio) biolayer interferometer.
Soluble GAL9 antigen was then added to the system and binding measured. […] Octet kinetic analysis software was used to calculate the kinetic and equilibrium binding constants based on the rate of association and dissociation curves. Analysis was performed globally (global fit) where kinetic constants were derived simultaneously from all analyte concentration included in the experiment.

T1 sequence (O00182 whole entry): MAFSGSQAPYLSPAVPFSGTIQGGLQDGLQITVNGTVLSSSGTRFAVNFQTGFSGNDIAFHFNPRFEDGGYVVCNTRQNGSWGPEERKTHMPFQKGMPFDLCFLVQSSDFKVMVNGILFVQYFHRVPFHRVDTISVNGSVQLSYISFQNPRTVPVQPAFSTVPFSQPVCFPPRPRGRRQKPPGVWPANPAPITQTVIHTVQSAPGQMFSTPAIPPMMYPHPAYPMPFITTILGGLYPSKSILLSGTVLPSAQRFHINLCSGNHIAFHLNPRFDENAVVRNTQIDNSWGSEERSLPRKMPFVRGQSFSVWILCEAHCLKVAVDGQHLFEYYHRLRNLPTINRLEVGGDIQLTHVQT

B1: P9-10 (antibody, human IgG1, kappa, V domains shown)
VH: EVQLVESGGGLVQPGGSLRLSCAASGFTFDYYVIHWVRQAPGKGLEWVAAIDSYWGDTYYADSVKGRFTISADTSKNTAYLQMNSLRAEDTAVYYCARFYFYGFDYWGQGTLVTVSS
VL: DIQMTQSPSSLSASVGDRVTITCRASQSVSSAVAWYQQKPGKAPKLLIYSASSLYSGVPSRFSGSRSGTDFTLTISSLQPEDFATYYCQQYSWSLWTFGQGTKVEIKR
notes: bivalent monospecific native human full-length IgG1; also called ABS clone P9-10
- Kd: 5.77 nM

B2: P9-32 (antibody, human IgG1, kappa, V domains shown)
VH: EVQLVESGGGLVQPGGSLRLSCAASGFTFSAYWIHWVRQAPGKGLEWVALIGPDGGYTYYADSVKGRFTISADTSKNTAYLQMNSLRAEDTAVYYCARQASRGLDYWGQGTLVTVSS
VL: B1 VL with Y91W, W93S, S94P, W96H
notes: bivalent monospecific native human full-length IgG1; also called ABS clone P9-32
- Kd: 1.08 nM

B3: P9-15 (antibody, human IgG1, kappa, V domains shown)
VH: EVQLVESGGGLVQPGGSLRLSCAASGFTFRYYWIHWVRQAPGKGLEWVAAIFPSGGITTYADSVKGRFTISADTSKNTAYLQMNSLRAEDTAVYYCARGWPWGLDYWGQGTLVTVSS
VL: B1 VL with Y91R, S92D, W93R, L95P, W96Y
notes: bivalent monospecific native human full-length IgG1; also called ABS clone P9-15; Clone 15
- Kd: 2.21 nM

B4: P9-22 (antibody, human IgG1, kappa, V domains shown)
VH: EVQLVESGGGLVQPGGSLRLSCAASGFTFSSYYIHWVRQAPGKGLEWVAAIYPFSGGTYYADSVKGRFTISADTSKNTAYLQMNSLRAEDTAVYYCARGYYVYVVMDYWGQGTLVTVSS
VL: B1 VL with S92K, W93S, L95P
notes: bivalent monospecific native human full-length IgG1; also called ABS clone P9-22; α-GAL9 (P9-22)
- Kd: 4.85 nM

B5: P9-18 (antibody, human IgG1, kappa, V domains shown)
VH: B1 VH with D30S, Y31W, D52Y, S53P, W55H, G56S, D57K, F99G, F101W, F104M
VL: B1 VL with S92T, W93D, S94A, L95P
notes: the murine IgG backbones were used only in vivo; also called ABS clone P9-18; Clone 18
- Kd: 6.24 nM

B6: P9-16 (antibody, human IgG1, kappa, V domains shown)
VH: B4 VH with S31Y, Y33W, A50D, F54S, G57Y, Y100W, V102A, Y103A, V104Y, V105G
VL: B1 VL with S92A, W93L, S94R, L95P, W96L
notes: bivalent monospecific native human full-length IgG1; also called ABS clone P9-16
- Kd: 2.87 nM

B7: P9-28 (antibody, human IgG1, kappa, V domains shown)
VH: EVQLVESGGGLVQPGGSLRLSCAASGFTFGFYYIHWVRQAPGKGLEWVAFIDPHGGSTYYADSVKGRFTISADTSKNTAYLQMNSLRAEDTAVYYCARLSYPGVLDYWGQGTLVTVSS
VL: B1 VL with Y91G, S92Y, W93S, S94T, W96V
notes: bivalent monospecific native human full-length IgG1; also called ABS clone P9-28; α-GAL9 (P9-28)
- Kd: 3.36 nM
